From patent US20140087995A1 (published 2014)
One block for each binder: values may come before it. Numbered stars: 1 amine (or outer) side, 2 acyl side, 3 side chain; on linkers, the order of the positions; unused ones are H or OH. Bridge positions count the residues as written; N and C are the ends. Side chains are listed from the residue outwards. Ends that are not written are not given here. * marks the point of attachment. C20 diacid = O=C(O)CCCCCCCCCCCCCCCCCCC(=O)*; γGlu = O=C(O)[C@H](CCC(=O)[*:2])N[*:1]; AEEA = NCCOCCOCC(=O)O

What was measured:
[1] = biological target: T1, rat amylin receptor (rat calcitonin receptor + rat RAMP 3) (rat, UniProt P32214 25-516; Q9JJ73 23-147); assay: SPA competition vs 125I-rat amylin, membranes with rat CTR + rat RAMP3 (Assay VI)
T1 construct: whole, on cells; Cell membranes of transiently transfected BHK tk'ts 13 cells (Assay VI); also called rAmylin-R; rat amylin 3(a) receptor
T1 sequence (looked up) 1: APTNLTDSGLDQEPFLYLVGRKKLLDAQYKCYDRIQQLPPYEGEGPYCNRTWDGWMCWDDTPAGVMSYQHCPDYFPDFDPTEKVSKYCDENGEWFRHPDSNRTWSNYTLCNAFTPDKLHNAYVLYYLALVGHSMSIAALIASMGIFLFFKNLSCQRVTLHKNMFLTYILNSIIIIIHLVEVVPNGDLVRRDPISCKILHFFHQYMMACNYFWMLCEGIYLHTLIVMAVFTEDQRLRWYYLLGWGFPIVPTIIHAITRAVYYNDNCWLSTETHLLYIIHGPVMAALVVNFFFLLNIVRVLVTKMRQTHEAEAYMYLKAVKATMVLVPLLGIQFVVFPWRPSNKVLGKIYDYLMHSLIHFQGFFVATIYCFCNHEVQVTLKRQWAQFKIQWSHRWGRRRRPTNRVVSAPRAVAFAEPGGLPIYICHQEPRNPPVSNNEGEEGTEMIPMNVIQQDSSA
T1 sequence (looked up) 2: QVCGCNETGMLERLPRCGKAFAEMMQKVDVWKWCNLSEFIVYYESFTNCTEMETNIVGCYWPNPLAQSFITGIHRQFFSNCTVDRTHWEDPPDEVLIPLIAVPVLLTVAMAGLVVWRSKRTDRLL

[2] = biological target: T2, rat calcitonin receptor (rat, UniProt P32214 25-516); assay: SPA competition vs 125I-calcitonin, membranes with rat CTR (Assay VIII)
T2 construct: whole, on cells; Cell membranes of transiently transfected BHK tk'ts 13 cells (Assay VIII); also called rCTR; rCT
T2 sequence (looked up): T1 sequence (looked up) 1

[3] = biological target: T3, human amylin receptor (amylin 3(a) receptor: human calcitonin receptor coexpressed with RAMP-3) (human, UniProt P30988 25-474; O60896 24-148); assay: cell-based or functional assay
T3 sequence (looked up) 1: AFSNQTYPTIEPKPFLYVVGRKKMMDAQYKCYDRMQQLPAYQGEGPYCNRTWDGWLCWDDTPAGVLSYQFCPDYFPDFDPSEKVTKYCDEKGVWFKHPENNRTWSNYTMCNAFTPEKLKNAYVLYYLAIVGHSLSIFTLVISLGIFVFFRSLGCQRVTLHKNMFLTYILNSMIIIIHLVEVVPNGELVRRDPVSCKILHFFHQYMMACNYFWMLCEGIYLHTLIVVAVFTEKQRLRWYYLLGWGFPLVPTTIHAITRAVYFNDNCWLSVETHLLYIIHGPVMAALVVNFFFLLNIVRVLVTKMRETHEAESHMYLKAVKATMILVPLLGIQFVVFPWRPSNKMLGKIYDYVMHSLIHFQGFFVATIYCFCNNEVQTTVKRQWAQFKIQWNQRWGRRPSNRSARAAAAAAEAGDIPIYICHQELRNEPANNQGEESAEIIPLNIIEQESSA
T3 sequence (looked up) 2: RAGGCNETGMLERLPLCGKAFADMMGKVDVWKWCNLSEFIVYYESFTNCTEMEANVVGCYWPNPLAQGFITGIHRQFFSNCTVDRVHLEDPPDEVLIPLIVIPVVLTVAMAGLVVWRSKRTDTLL

[4] = biological target: T4, human calcitonin receptor (human, UniProt P30988 25-474); assay: cell-based or functional assay
T4 sequence (looked up): T3 sequence (looked up) 1

[5] = biological target: T5, rat amylin receptor (rat calcitonin receptor + rat RAMP 3) (rat, UniProt P32214 25-516; Q9JJ73 23-147); assay: SPA competition with 125I-rat amylin, membranes of BHK cells with rat calcitonin receptor + rat RAMP3 (Assay VI)
T5 construct: whole, on cells; membranes of transiently transfected BHK tk'ts 13 cells (Assay VI); also called rAmylin-R; rat amylin 3(a) receptor
T5 sequence (looked up) 1: T1 sequence (looked up) 1
T5 sequence (looked up) 2: T1 sequence (looked up) 2

[6] = biological target: T6, human calcitonin receptor (human, UniProt P30988 25-474); assay: IC50 on human calcitonin receptor divided by IC50 on human amylin receptor (SPA competition)
T6 construct: whole, on cells; membranes of stably transfected BHK cells (Assay VII); also called hCTR; hCT
T6 sequence (looked up): T3 sequence (looked up) 1
Summary of the method: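 Membranes (35 ng/μL final) + SPA beads, 50 mM Hepes pH 7.4 buffer with 1 mM CaCl2, 5 mM MgCl₂, 0.1% OA, 0.02% Tween20; 120 min, 25° C, shaking; centrifuged, counted; IC₅₀ by one-site binding competition.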

[7] = biological target: T7, rat calcitonin receptor (rat, UniProt P32214 25-516); assay: SPA competition with 125I-calcitonin, membranes of BHK cells with rat calcitonin receptor (Assay VIII)
T7 construct: whole, on cells; membranes of transiently transfected BHK tk'ts 13 cells (Assay VIII); also called rCTR; rat calcitonin (a) receptor
T7 sequence (looked up): T1 sequence (looked up) 1

[8] = biological target: T7, rat calcitonin receptor; assay: IC50 on rat calcitonin receptor divided by IC50 on rat amylin receptor (SPA competition)

B3: N^ε1-[2-[2-[2-[[(4S)-4-carboxy-4-(19-carboxynonadecanoylamino)butanoyl]amino]ethoxy]ethoxy]acetyl]-[Arg17,Pro21,Pro27,His34]-h-amylin (peptide)
peptide: K([AEEA-γGlu-C20 diacid])CNTATCATQRLANFLRHSSPNFGAIPSSTNVGHNTY-NH2
modifications: disulfide 2-7; N-terminus assumed
SMILES: CC[C@H](C)[C@H](NC(=O)[C@H](C)NC(=O)CNC(=O)[C@H](Cc1ccccc1)NC(=O)[C@H](CC(N)=O)NC(=O)[C@@H]1CCCN1C(=O)[C@H](CO)NC(=O)[C@H](CO)NC(=O)[C@H](Cc1c[nH]cn1)NC(=O)[C@H](CCCNC(=N)N)NC(=O)[C@H](CC(C)C)NC(=O)[C@H](Cc1ccccc1)NC(=O)[C@H](CC(N)=O)NC(=O)[C@H](C)NC(=O)[C@H](CC(C)C)NC(=O)[C@H](CCCNC(=N)N)NC(=O)[C@H](CCC(N)=O)NC(=O)[C@@H](NC(=O)[C@H](C)NC(=O)[C@@H]1CSSC[C@H](NC(=O)[C@@H](N)CCCCNC(=O)COCCOCCNC(=O)CC[C@H](NC(=O)CCCCCCCCCCCCCCCCCCC(=O)O)C(=O)O)C(=O)N[C@@H](CC(N)=O)C(=O)N[C@@H]([C@@H](C)O)C(=O)N[C@@H](C)C(=O)N[C@@H]([C@@H](C)O)C(=O)N1)[C@@H](C)O)C(=O)N1CCC[C@H]1C(=O)N[C@@H](CO)C(=O)N[C@@H](CO)C(=O)N[C@H](C(=O)N[C@@H](CC(N)=O)C(=O)N[C@H](C(=O)NCC(=O)N[C@@H](Cc1c[nH]cn1)C(=O)N[C@@H](CC(N)=O)C(=O)N[C@H](C(=O)N[C@@H](Cc1ccc(O)cc1)C(N)=O)[C@@H](C)O)C(C)C)[C@@H](C)O
notes: also called compound 76
hAmylin-R funct. EC50 (pM) [3]: 297 pM | hCTR funct. EC50 (pM) [4]: 7370 pM

B4: N^ε1-[2-[2-[2-[[2-[2-[2-[[(4S)-4-carboxy-4-(19-carboxynonadecanoylamino)butanoyl]amino]ethoxy]ethoxy]acetyl]amino]ethoxy]ethoxy]acetyl]-[Arg17,Pro21,Pro27,Arg34 … (peptide)
peptide: K([AEEA-AEEA-γGlu-C20 diacid])CNTATCATQRLANFLRHSSPNFGAIPSSTNVGRNTY-NH2
modifications: disulfide 2-7; N-terminus assumed
SMILES: CC[C@H](C)[C@H](NC(=O)[C@H](C)NC(=O)CNC(=O)[C@H](Cc1ccccc1)NC(=O)[C@H](CC(N)=O)NC(=O)[C@@H]1CCCN1C(=O)[C@H](CO)NC(=O)[C@H](CO)NC(=O)[C@H](Cc1c[nH]cn1)NC(=O)[C@H](CCCNC(=N)N)NC(=O)[C@H](CC(C)C)NC(=O)[C@H](Cc1ccccc1)NC(=O)[C@H](CC(N)=O)NC(=O)[C@H](C)NC(=O)[C@H](CC(C)C)NC(=O)[C@H](CCCNC(=N)N)NC(=O)[C@H](CCC(N)=O)NC(=O)[C@@H](NC(=O)[C@H](C)NC(=O)[C@@H]1CSSC[C@H](NC(=O)[C@@H](N)CCCCNC(=O)COCCOCCNC(=O)COCCOCCNC(=O)CC[C@H](NC(=O)CCCCCCCCCCCCCCCCCCC(=O)O)C(=O)O)C(=O)N[C@@H](CC(N)=O)C(=O)N[C@@H]([C@@H](C)O)C(=O)N[C@@H](C)C(=O)N[C@@H]([C@@H](C)O)C(=O)N1)[C@@H](C)O)C(=O)N1CCC[C@H]1C(=O)N[C@@H](CO)C(=O)N[C@@H](CO)C(=O)N[C@H](C(=O)N[C@@H](CC(N)=O)C(=O)N[C@H](C(=O)NCC(=O)N[C@@H](CCCNC(=N)N)C(=O)N[C@@H](CC(N)=O)C(=O)N[C@H](C(=O)N[C@@H](Cc1ccc(O)cc1)C(N)=O)[C@@H](C)O)C(C)C)[C@@H](C)O
notes: also called compound 95
hAmylin-R funct. EC50 (pM) [3]: 651 pM | Ratio hCT/hAmylin funct. [4]: 33 | hCTR funct. EC50 (pM) [4]: 21500 pM

B5: N^ε1-[(4S)-4-carboxy-4-(19-carboxynonadecanoylamino)butanoyl]-[Arg17,Pro21,Pro27]-h-amylin (peptide)
peptide: K([γGlu-C20 diacid])CNTATCATQRLANFLRHSSPNFGAIPSSTNVGSNTY-NH2
modifications: disulfide 2-7 (inferred)
notes: analogue of human amylin; also called compound 48
IC50 [5]: 0.558 nM | Ratio hCT/hAmylin binding [6]: 69.7 | IC50 [7]: 112 nM | Ratio rCT/rAmylin binding [8]: 201

Continued, values first:

IC50 [1]: 0.383 nM | IC50 [2]: 38 nM
B1: N^ε1-[2-[2-[2-[[(4S)-4-carboxy-4-(19-carboxynonadecanoylamino)butanoyl]amino]ethoxy]ethoxy]acetyl]-[Arg17,Pro21,Pro27,Arg35]-h-amylin (peptide)
peptide: K([AEEA-γGlu-C20 diacid])CNTATCATQRLANFLRHSSPNFGAIPSSTNVGSRTY-NH2
modifications: disulfide 2-7; N-terminus assumed
SMILES: CC[C@H](C)[C@H](NC(=O)[C@H](C)NC(=O)CNC(=O)[C@H](Cc1ccccc1)NC(=O)[C@H](CC(N)=O)NC(=O)[C@@H]1CCCN1C(=O)[C@H](CO)NC(=O)[C@H](CO)NC(=O)[C@H](Cc1c[nH]cn1)NC(=O)[C@H](CCCNC(=N)N)NC(=O)[C@H](CC(C)C)NC(=O)[C@H](Cc1ccccc1)NC(=O)[C@H](CC(N)=O)NC(=O)[C@H](C)NC(=O)[C@H](CC(C)C)NC(=O)[C@H](CCCNC(=N)N)NC(=O)[C@H](CCC(N)=O)NC(=O)[C@@H](NC(=O)[C@H](C)NC(=O)[C@@H]1CSSC[C@H](NC(=O)[C@@H](N)CCCCNC(=O)COCCOCCNC(=O)CC[C@H](NC(=O)CCCCCCCCCCCCCCCCCCC(=O)O)C(=O)O)C(=O)N[C@@H](CC(N)=O)C(=O)N[C@@H]([C@@H](C)O)C(=O)N[C@@H](C)C(=O)N[C@@H]([C@@H](C)O)C(=O)N1)[C@@H](C)O)C(=O)N1CCC[C@H]1C(=O)N[C@@H](CO)C(=O)N[C@@H](CO)C(=O)N[C@H](C(=O)N[C@@H](CC(N)=O)C(=O)N[C@H](C(=O)NCC(=O)N[C@@H](CO)C(=O)N[C@@H](CCCNC(=N)N)C(=O)N[C@H](C(=O)N[C@@H](Cc1ccc(O)cc1)C(N)=O)[C@@H](C)O)C(C)C)[C@@H](C)O
notes: Acylated analogue of human amylin; also called compound 38

IC50 [1]: 0.335 nM | IC50 [2]: 159 nM
B2: N^ε1-[(4S)-4-carboxy-4-[[(4S)-4-carboxy-4-(19-carboxynonadecanoylamino)butanoyl]amino]butanoyl]-[Asp14,Arg17,Pro21,Pro27,Arg35]-h-amylin (peptide)
peptide: K([γGlu-γGlu-C20 diacid])CNTATCATQRLADFLRHSSPNFGAIPSSTNVGSRTY-NH2
modifications: disulfide 2-7; N-terminus assumed
SMILES: CC[C@H](C)[C@H](NC(=O)[C@H](C)NC(=O)CNC(=O)[C@H](Cc1ccccc1)NC(=O)[C@H](CC(N)=O)NC(=O)[C@@H]1CCCN1C(=O)[C@H](CO)NC(=O)[C@H](CO)NC(=O)[C@H](Cc1c[nH]cn1)NC(=O)[C@H](CCCNC(=N)N)NC(=O)[C@H](CC(C)C)NC(=O)[C@H](Cc1ccccc1)NC(=O)[C@H](CC(=O)O)NC(=O)[C@H](C)NC(=O)[C@H](CC(C)C)NC(=O)[C@H](CCCNC(=N)N)NC(=O)[C@H](CCC(N)=O)NC(=O)[C@@H](NC(=O)[C@H](C)NC(=O)[C@@H]1CSSC[C@H](NC(=O)[C@@H](N)CCCCNC(=O)CC[C@H](NC(=O)CC[C@H](NC(=O)CCCCCCCCCCCCCCCCCCC(=O)O)C(=O)O)C(=O)O)C(=O)N[C@@H](CC(N)=O)C(=O)N[C@@H]([C@@H](C)O)C(=O)N[C@@H](C)C(=O)N[C@@H]([C@@H](C)O)C(=O)N1)[C@@H](C)O)C(=O)N1CCC[C@H]1C(=O)N[C@@H](CO)C(=O)N[C@@H](CO)C(=O)N[C@H](C(=O)N[C@@H](CC(N)=O)C(=O)N[C@H](C(=O)NCC(=O)N[C@@H](CO)C(=O)N[C@@H](CCCNC(=N)N)C(=O)N[C@H](C(=O)N[C@@H](Cc1ccc(O)cc1)C(N)=O)[C@@H](C)O)C(C)C)[C@@H](C)O
notes: Acylated analogue of human amylin; also called compound 52
